Values quoted from earlier work as cited in article PMC9917443.
Read-outs that look alike come from different tables or passages of the source. Each block holds one substance with its values, some of them ahead of it.

What was measured:
GB1a SD1 [1] = target: GB1a SD1 (UniProt Q9UBS5)
GB1a SD1 [2] = target: GB1a SD1 (UniProt Q9UBS5); remark: listed apart in the source
GB1a SD1 [3] = target: GB1a SD1 (UniProt Q9UBS5); remark: listed apart in the source

Sequence of GB1a SD1 (Q9UBS5 30-96): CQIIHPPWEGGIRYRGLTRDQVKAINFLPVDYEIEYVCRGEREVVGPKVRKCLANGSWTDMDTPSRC
Sequence of sAPP (P05067 18-687): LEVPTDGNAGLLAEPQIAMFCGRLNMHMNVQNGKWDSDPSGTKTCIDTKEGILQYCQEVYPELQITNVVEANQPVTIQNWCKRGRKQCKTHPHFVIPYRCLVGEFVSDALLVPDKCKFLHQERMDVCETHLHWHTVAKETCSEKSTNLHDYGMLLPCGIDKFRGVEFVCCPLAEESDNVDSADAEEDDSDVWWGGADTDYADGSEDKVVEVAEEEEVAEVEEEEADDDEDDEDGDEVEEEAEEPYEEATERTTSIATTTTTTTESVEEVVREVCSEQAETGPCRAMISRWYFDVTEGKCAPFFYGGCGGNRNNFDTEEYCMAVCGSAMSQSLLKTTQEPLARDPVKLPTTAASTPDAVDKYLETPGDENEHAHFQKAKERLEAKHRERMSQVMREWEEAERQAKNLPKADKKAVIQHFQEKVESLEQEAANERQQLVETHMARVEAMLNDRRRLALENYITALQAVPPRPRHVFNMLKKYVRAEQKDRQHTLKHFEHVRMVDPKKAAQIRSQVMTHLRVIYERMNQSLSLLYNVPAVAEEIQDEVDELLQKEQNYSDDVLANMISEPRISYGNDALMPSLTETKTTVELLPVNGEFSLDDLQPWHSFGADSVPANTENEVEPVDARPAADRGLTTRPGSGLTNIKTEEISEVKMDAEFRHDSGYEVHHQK
Sequence of APP (P05067 18-770): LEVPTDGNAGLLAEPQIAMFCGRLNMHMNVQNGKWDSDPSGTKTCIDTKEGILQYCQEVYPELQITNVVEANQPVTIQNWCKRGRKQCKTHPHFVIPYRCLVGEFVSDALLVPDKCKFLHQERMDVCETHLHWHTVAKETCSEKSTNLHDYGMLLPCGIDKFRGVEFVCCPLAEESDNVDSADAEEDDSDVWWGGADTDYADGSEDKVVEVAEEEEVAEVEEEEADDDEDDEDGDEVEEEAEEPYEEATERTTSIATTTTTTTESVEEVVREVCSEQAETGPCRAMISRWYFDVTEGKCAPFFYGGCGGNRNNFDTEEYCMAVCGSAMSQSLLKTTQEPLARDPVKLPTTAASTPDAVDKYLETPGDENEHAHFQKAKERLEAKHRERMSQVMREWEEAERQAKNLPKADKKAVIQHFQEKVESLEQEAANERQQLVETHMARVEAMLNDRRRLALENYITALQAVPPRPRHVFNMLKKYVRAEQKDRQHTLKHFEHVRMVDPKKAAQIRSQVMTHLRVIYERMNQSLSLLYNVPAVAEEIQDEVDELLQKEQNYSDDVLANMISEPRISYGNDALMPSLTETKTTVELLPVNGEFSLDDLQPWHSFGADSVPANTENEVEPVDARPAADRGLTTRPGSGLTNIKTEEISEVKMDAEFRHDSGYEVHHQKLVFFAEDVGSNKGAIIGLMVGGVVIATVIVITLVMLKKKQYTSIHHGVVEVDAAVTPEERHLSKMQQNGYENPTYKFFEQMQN

Kd (GB1a SD1 [1]): 0.81 µM
Substance: APP17 APP17 peptide (from UniProt P05067)

Kd (GB1a SD1 [2]): 0.431 µM
Substance: sAPP (from UniProt P05067)

Kd (GB1a SD1 [3]): 0.183 µM
Substance: APP (from UniProt P05067)
